The test concerns the target T1, FtsZ labelled with Alexa Fluor 647 (E. coli, UniProt P0A9A6 1-383, Alexa Fluor 647 label, 0.9 ± 0.2 mol of fluorophore per mol of protein).
T1 construct: FtsZ, Escherichia coli cell division protein; called wild-type in the discussion; The label was added to the polymerised protein; also called FtsZ-A647
T1 sequence (looked up): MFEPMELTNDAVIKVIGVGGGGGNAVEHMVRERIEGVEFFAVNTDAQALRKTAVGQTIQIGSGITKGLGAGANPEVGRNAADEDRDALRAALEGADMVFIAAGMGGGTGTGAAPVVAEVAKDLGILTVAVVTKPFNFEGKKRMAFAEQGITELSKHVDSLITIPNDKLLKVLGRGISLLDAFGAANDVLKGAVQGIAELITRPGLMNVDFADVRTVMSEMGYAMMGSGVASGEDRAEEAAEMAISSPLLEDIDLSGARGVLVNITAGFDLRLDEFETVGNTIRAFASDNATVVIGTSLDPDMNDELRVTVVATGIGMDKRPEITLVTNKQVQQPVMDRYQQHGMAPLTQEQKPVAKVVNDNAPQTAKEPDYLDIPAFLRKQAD
Description: recruitment to a supported lipid bilayer, fluorescence microscopy; 1 µM purified sZipA-A488 first incubated on the SLB with DGS-NTA lipids, washed; 3 µM purified FtsZ-A647 with 2 mM GTP added in minimal reaction buffer or PUREfrex2.0, with 50 g/L Ficoll70 or cell-free synthesized ZapA; spinning disk microscopy at room temperature. Particulars: both partners purified.

B1: soluble ZipA labelled with Alexa Fluor 488 (domain or fragment)
chain: not shown
modifications: Alexa Fluor 488 label, 0.9 ± 0.2 mol of fluorophore per mol of protein
notes: Held on the supported lipid bilayer through the His6-tag and DGS-NTA lipids; also called sZipA-A488; sZipA; not shown: His6, N-terminal, kept
As for B1, the binding result is reported as “binds”.

The values are drawn from publication PMC7527988, “Cell-free biogenesis of bacterial division proto-rings that can constrict liposomes” (Communications Biology, 2020).
